Experimental data as given in patent US20240010722A1.
Numbering of substitutions follows the chain as printed. Several values for one entry are separate records, joined by “and”; a condition that tells them apart may be missing. Equal values may be shown once. One block for each binder: values may come before it.

Biological target: Insulin
Experiment: polyreactivity ELISA on insulin coat, 100 nM

Sequence of Insulin (P01308 25-54, chain 1 of 2): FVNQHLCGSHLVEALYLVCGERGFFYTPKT
Sequence of Insulin (P01308 90-110, chain 2 of 2): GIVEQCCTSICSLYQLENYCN

B5: MIAB129 (antibody, V domains shown)
VH: EVQLLESGGGLVQPGGSLRLSCAASGFTFSDFWMHWVRQAPGKGLEWISYISGDSGYTNYADSVKGRFTISRDNSKNTLYLQMNSLRAEDTAVYYCARDRPGYYYMDVWGKGTTVTVSS
VL: DIQMTQSPSSLSASVGDRVTITCRASQSVSRSLAWYQQKPGKAPKLLIYAASSLQSGVPSRFSGSGSGTDFTLTISSLQPEDFATYYCQQYKSYPVTFGQGTKVEIK
Insulin polyreactivity score: 2.43

B6: MIAB159 (antibody, V domains shown)
VH: B5 VH with D54E, G102Y
VL: B5 VL
Insulin polyreactivity score: 4.66

B7: MIAB168 (antibody, V domains shown)
VH: B5 VH with G102Y
VL: B5 VL with A34L
Insulin polyreactivity score: 8.35

B8: MIAB157 (antibody, V domains shown)
VH: B5 VH with G102Y
VL: B5 VL with V29I, R31S, S32Y
Insulin polyreactivity score: 3.99

B9: MIAB167 (antibody, V domains shown)
VH: B5 VH with G102Y
VL: B5 VL with A34K
Insulin polyreactivity score: 29.6

B13: MIAB164 (antibody, V domains shown)
VH: B5 VH with G102Y
VL: B5 VL with A34T
Insulin polyreactivity score: 7.07

B16: MIAB163 (antibody, V domains shown)
VH: B5 VH with G102Y
VL: B5 VL with A34D
Insulin polyreactivity score: 18.5

B19: MIAB166 (antibody, V domains shown)
VH: B5 VH with G102Y
VL: B5 VL with A34E
Insulin polyreactivity score: 7.89

B21: MIAB150 (antibody, V domains shown)
VH: B5 VH with G102Y
VL: B5 VL with V29I, S32Y
Insulin polyreactivity score: 3.74

B24: MIAB155 (antibody, V domains shown)
VH: B5 VH with G102Y
VL: B5 VL with V29I, R31S, A34N
Insulin polyreactivity score: 1.99

Second part, the binder after the results:

Insulin polyreactivity score: 3.19 and 3.63
B1: MIAB198 (antibody, V domains shown)
VH: B5 VH with G102Y, Y105I
VL: B5 VL

Insulin polyreactivity score: 8
B2: MIAB131 (antibody, V domains shown)
VH: B5 VH with G102Y, Y105G
VL: B5 VL

Insulin polyreactivity score: 2.83
B3: MIAB152 (antibody, V domains shown)
VH: B5 VH with G102Y
VL: B5 VL with R31S, S32Y

Insulin polyreactivity score: 9.53
B4: MIAB165 (antibody, V domains shown)
VH: B5 VH with G102Y
VL: B5 VL with A34S

Insulin polyreactivity score: 61.9
B10: MIAB154 (antibody, V domains shown)
VH: B5 VH with G102Y
VL: B5 VL with S32Y, A34N

Insulin polyreactivity score: 2.67
B11: MIAB158 (antibody, V domains shown)
VH: B5 VH with G102Y
VL: B5 VL with R31S, S32Y, A34N

Insulin polyreactivity score: 2.62
B12: MIAB128 (antibody, V domains shown)
VH: B5 VH with G102N
VL: B5 VL

Insulin polyreactivity score: 45.2
B14: MIAB156 (antibody, V domains shown)
VH: B5 VH with G102Y
VL: B5 VL with V29I, S32Y, A34N

Insulin polyreactivity score: 5
B15: MIAB161 (antibody, V domains shown)
VH: B5 VH with N74Q, G102Y
VL: B5 VL

Insulin polyreactivity score: 17.8
B17: MIAB160 (antibody, V domains shown)
VH: B5 VH with N59Q, G102Y
VL: B5 VL

Insulin polyreactivity score: 25.5
B18: MIAB134 (antibody, V domains shown)
VH: B5 VH with D31A, G102Y
VL: B5 VL

Insulin polyreactivity score: 3.79
B20: MIAB172 (antibody, V domains shown)
VH: B5 VH with G102T
VL: B5 VL

Insulin polyreactivity score: 5.31
B22: MIAB162 (antibody, V domains shown)
VH: B5 VH with G102Y
VL: B5 VL with A34G

Insulin polyreactivity score: 3.26
B23: MIAB130 (antibody, V domains shown)
VH: B5 VH with G102Y, Y105Q
VL: B5 VL
